Results on 22 molecules are retold here after publication PMC5645029 (Journal of medicinal chemistry, 2017).

Assay [1] deals with T1, mMC5R (Mus musculus, UniProt P41149). Description: cell-based.
The next assay addresses mMC1R (Mus musculus, UniProt Q01727). Description: AlphaScreen cAMP assay, agonist activity. Particulars: up to 100 μM concentrations. On the technique in general: Alpha assays give light when donor and acceptor beads are brought close together.
For another assay, the target named is mMC3R (Mus musculus, UniProt P33033). The assay can be described thus: AlphaScreen cAMP assay, agonist activity. As to conditions: up to 100 μM concentrations.
mMC3R, sequence (P33033 whole entry): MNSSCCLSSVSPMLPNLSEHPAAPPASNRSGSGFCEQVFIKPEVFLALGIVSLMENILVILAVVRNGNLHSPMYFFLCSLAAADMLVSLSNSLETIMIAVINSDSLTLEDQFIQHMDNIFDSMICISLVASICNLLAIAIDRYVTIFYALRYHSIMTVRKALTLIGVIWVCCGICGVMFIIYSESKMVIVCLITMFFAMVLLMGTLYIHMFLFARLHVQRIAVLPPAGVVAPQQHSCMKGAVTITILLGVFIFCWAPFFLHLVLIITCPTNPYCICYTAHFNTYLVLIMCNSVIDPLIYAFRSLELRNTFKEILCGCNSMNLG
Another assay addresses mMC4R (Mus musculus, UniProt P56450). The assay can be described thus: AlphaScreen cAMP assay, agonist activity. As to conditions: up to 100 μM concentrations.
The target in assay [2] is T1, mMC5R.
Assay [3] addresses mouse melanocortin-1 receptor (mouse) (UniProt Q01727).
Assay [4] has as its target mouse melanocortin-3 receptor (mouse) (UniProt P33033).
In assay [5] the target is mouse melanocortin-4 receptor (mouse) (UniProt P56450).
mouse melanocortin-4 receptor (mouse), sequence (P56450 whole entry): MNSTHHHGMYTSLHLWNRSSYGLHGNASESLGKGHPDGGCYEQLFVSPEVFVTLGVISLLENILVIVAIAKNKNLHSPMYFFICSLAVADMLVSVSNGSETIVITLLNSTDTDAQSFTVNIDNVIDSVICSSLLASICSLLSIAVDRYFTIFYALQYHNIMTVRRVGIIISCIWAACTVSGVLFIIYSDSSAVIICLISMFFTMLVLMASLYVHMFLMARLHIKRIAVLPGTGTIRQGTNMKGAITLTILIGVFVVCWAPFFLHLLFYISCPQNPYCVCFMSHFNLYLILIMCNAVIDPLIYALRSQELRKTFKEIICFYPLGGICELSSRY

Non-standard residues stand in square brackets, D forms with d. Residues, ends and D or L forms follow the SMILES beside them. Bounds are passed on as bounds.

mMC1R, sequence (Q01727 whole entry): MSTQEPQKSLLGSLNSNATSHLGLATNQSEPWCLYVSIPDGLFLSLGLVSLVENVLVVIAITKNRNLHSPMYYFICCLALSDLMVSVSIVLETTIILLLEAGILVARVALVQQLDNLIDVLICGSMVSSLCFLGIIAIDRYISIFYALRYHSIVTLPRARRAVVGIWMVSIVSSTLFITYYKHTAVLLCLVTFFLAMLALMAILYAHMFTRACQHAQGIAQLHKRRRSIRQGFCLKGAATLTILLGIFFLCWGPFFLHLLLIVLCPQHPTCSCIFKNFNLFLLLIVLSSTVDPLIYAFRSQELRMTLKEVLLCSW
mouse melanocortin-1 receptor (mouse), sequence (Q01727 whole entry): as above
mMC4R, sequence (P56450 whole entry): as the sequence (P56450 whole entry) above
T1 sequence (P41149 whole entry): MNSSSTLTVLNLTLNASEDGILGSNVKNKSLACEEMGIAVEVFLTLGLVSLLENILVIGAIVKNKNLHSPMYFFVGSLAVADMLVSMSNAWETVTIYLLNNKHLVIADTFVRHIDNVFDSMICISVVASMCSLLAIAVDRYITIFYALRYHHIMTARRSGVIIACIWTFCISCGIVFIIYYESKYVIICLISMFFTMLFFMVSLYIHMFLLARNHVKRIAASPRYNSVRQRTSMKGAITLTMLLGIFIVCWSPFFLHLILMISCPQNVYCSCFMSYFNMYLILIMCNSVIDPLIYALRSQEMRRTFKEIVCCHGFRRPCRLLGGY
mouse melanocortin-3 receptor (mouse), sequence (P33033 whole entry): as the sequence (P33033 whole entry) above

One may read the EC50 as the midpoint of the concentration-response curve. The low end stands for higher potency in that assay, the high end for lower potency in that assay. Regarding `C[C@@H]1NC(=O)[C@H](CO)NC(=O)[C@H](Cc2ccccc2)NC(=O)[C@H](Cc2ccccc2)NC(=O)[C@H](CCCNC(=N)N)NC(=O)[C@@H]2CCCN2C(=O)[C@H]2CCCN2C(=O)[C@H](Cc2ccccc2)NC1=O` [Peptide 5, c[Pro-Arg-Phe-Phe-Ser-Ala-Phe-DPro]], the concentration giving a half-maximal response (EC50) on mMC5R [1] worked out at 0.14 µM. The “agonist activity at the MC1R (in words)” value at mMC1R is on record as “No agonist activity”. For the same molecule, at mMC3R, the “agonist activity at the MC3R (in words)” value is listed as “No agonist activity”. Moreover, the “agonist activity at the MC4R (in words)” value on mMC4R was “No agonist activity”.
With `C[C@@H]1NC(=O)[C@@H](CN)NC(=O)[C@H](Cc2ccccc2)NC(=O)[C@H](Cc2ccccc2)NC(=O)[C@H](CCCNC(=N)N)NC(=O)[C@@H]2CCCN2C(=O)[C@H]2CCCN2C(=O)[C@H](Cc2ccccc2)NC1=O` [Peptide 9, c[Pro-Arg-Phe-Phe-DDap-Ala-Phe-DPro]], the response at mMC5R [1] was half-maximal at 0.11 µM (EC50). The “agonist activity at the MC1R (in words)” value on mMC1R is on record as “no agonist activity”. The “agonist activity at the MC3R (in words)” value on mMC3R was “no agonist activity”. Further, the “agonist activity at the MC4R (in words)” value at mMC4R is recorded as “no agonist activity”.
Regarding `C[C@@H]1NC(=O)[C@H](Cc2ccccc2)NC(=O)[C@H](Cc2ccccc2)NC(=O)[C@H](Cc2ccccc2)NC(=O)[C@H](CCCNC(=N)N)NC(=O)[C@@H]2CCCN2C(=O)[C@H]2CCCN2C(=O)[C@H](Cc2ccccc2)NC1=O` [Peptide 14, c[Pro-Arg-Phe-Phe-Phe-Ala-Phe-DPro]], the “activity at the MC5R (in words)” value on mMC5R [2] is listed as “no activity”.
The molecule `C[C@@H]1NC(=O)[C@H](Cc2c[nH]c3ccccc23)NC(=O)[C@H](Cc2ccccc2)NC(=O)[C@H](Cc2ccccc2)NC(=O)[C@H](CCCNC(=N)N)NC(=O)[C@@H]2CCCN2C(=O)[C@H]2CCCN2C(=O)[C@H](Cc2ccccc2)NC1=O` [Peptide 15, c[Pro-Arg-Phe-Phe-Trp-Ala-Phe-DPro]] (cyclo(RFFWAF[dP]P)) yielded an EC50 at mMC5R [1] of 0.15 µM.
As for `N=C(N)NCCC[C@@H]1NC(=O)[C@@H]2CCCN2C(=O)[C@H]2CCCN2C(=O)[C@H](Cc2ccccc2)NC(=O)[C@H](CO)NC(=O)[C@H](CC(N)=O)NC(=O)[C@H](Cc2ccccc2)NC(=O)[C@H](Cc2ccccc2)NC1=O` [Peptide 21, c[Pro-Arg-Phe-Phe-Asn-Ser-Phe-DPro]] (cyclo(RFFNSF[dP]P)), at mMC1R, the “agonist activity at the MC1R (in words)” value is given as “did not possess agonist activity”. Further, the “agonist activity at the MC3R (in words)” value on mMC3R was “did not possess agonist activity”. Also, the “agonist activity at the MC4R (in words)” value on mMC4R was “did not possess agonist activity”.
Turning to `C[C@@H]1NC(=O)[C@H](CC(N)=O)NC(=O)[C@H](Cc2ccccc2)NC(=O)[C@H](Cc2ccccc2)NC(=O)[C@H](CCCNC(=N)N)NC(=O)[C@@H]2CCCN2C(=O)[C@H]2CCCN2C(=O)[C@H](C)NC1=O` [Peptide 24, c[Pro-Arg-Phe-Phe-Asn-Ala-Ala-DPro]] (cyclo(RFFNAA[dP]P)), on mMC1R, the “agonist activity at the MC1R (in words)” value was “no agonist activity”.
For the molecule “c[Pro-Arg-Phe-Phe-Abu-Ala-Phe-DPro] (peptide)”, the agonist EC50 (cAMP AlphaScreen, HEK293 cells stably expressing the receptor) in assay [3], in assay [4] and in assay [5] was greater than 100 µM throughout.
Take “c[Pro-Arg-Phe-Phe-DDap-Ala-Phe-DPro] (peptide)”: the agonist EC50 (cAMP AlphaScreen, HEK293 cells stably expressing the receptor) in assay [3], in assay [4] and in assay [5] was greater than 100 µM each time.
Regarding “c[Pro-Arg-Phe-Phe-Dap-Ala-Phe-DPro] (peptide)”, the agonist EC50 (cAMP AlphaScreen, HEK293 cells stably expressing the receptor) in assay [4] and in assay [5] was greater than 100 µM throughout.

B1: c[Pro-Arg-Phe-Phe-Asn-Asp-Phe-DPro] (peptide)
peptide: cyclo(PRFFNDF[dP])
SMILES: N=C(N)NCCC[C@@H]1NC(=O)[C@@H]2CCCN2C(=O)[C@H]2CCCN2C(=O)[C@H](Cc2ccccc2)NC(=O)[C@H](CC(=O)O)NC(=O)[C@H](CC(N)=O)NC(=O)[C@H](Cc2ccccc2)NC(=O)[C@H](Cc2ccccc2)NC1=O
In the case of B1, the agonist EC50 (cAMP AlphaScreen, HEK293 cells stably expressing the receptor) in assay [4] and in assay [5] was greater than 100 µM each time.
Consider cyclo(PRFFVAF[dP]) [c[Pro-Arg-Phe-Phe-Val-Ala-Phe-DPro]], for which the agonist EC50 (cAMP AlphaScreen, HEK293 cells stably expressing the receptor) in assay [4] and in assay [5] was greater than 100 µM throughout.

B2: c[Pro-Arg-Phe-Phe-His-Ala-Phe-DPro] (peptide)
peptide: cyclo(PRFFHAF[dP])
SMILES: C[C@@H]1NC(=O)[C@H](Cc2c[nH]cn2)NC(=O)[C@H](Cc2ccccc2)NC(=O)[C@H](Cc2ccccc2)NC(=O)[C@H](CCCNC(=N)N)NC(=O)[C@@H]2CCCN2C(=O)[C@H]2CCCN2C(=O)[C@H](Cc2ccccc2)NC1=O
As to B2, the agonist EC50 (cAMP AlphaScreen, HEK293 cells stably expressing the receptor) in assay [3], in assay [4] and in assay [5] was greater than 100 µM each time.
In the case of cyclo(PRFFEAF[dP]) [c[Pro-Arg-Phe-Phe-Glu-Ala-Phe-DPro]], the agonist EC50 (cAMP AlphaScreen, HEK293 cells stably expressing the receptor) was 20.5 µM in assay [3], greater than 100 µM in assay [4] and greater than 100 µM in assay [5].

B3: c[Pro-Arg-Phe-Phe-Asn-Ser-Phe-DPro] (peptide)
peptide: cyclo(PRFFNSF[dP])
SMILES: N=C(N)NCCC[C@@H]1NC(=O)[C@@H]2CCCN2C(=O)[C@H]2CCCN2C(=O)[C@H](Cc2ccccc2)NC(=O)[C@H](CO)NC(=O)[C@H](CC(N)=O)NC(=O)[C@H](Cc2ccccc2)NC(=O)[C@H](Cc2ccccc2)NC1=O
On to B3, for which the agonist EC50 (cAMP AlphaScreen, HEK293 cells stably expressing the receptor) in assay [3], in assay [4] and in assay [5] was greater than 100 µM each time.

B4: c[Pro-Arg-Phe-Phe-Thr-Ala-Phe-DPro] (peptide)
peptide: cyclo(PRFFTAF[dP])
SMILES: C[C@@H]1NC(=O)[C@H]([C@@H](C)O)NC(=O)[C@H](Cc2ccccc2)NC(=O)[C@H](Cc2ccccc2)NC(=O)[C@H](CCCNC(=N)N)NC(=O)[C@@H]2CCCN2C(=O)[C@H]2CCCN2C(=O)[C@H](Cc2ccccc2)NC1=O
As to B4, the agonist EC50 (cAMP AlphaScreen, HEK293 cells stably expressing the receptor) in assay [3], in assay [4] and in assay [5] was greater than 100 µM each time.
For cyclo(PRFFDAF[dP]) [c[Pro-Arg-Phe-Phe-Asp-Ala-Phe-DPro]], the agonist EC50 (cAMP AlphaScreen, HEK293 cells stably expressing the receptor) in assay [3], in assay [4] and in assay [5] was greater than 100 µM in each case.
On to cyclo(PRFFSAF[dP]) [c[Pro-Arg-Phe-Phe-Ser-Ala-Phe-DPro]], for which the agonist EC50 (cAMP AlphaScreen, HEK293 cells stably expressing the receptor) in assay [3], in assay [4] and in assay [5] was greater than 100 µM each time.
cyclo(PRFFAAF[dP]) [c[Pro-Arg-Phe-Phe-Ala-Ala-Phe-DPro]]: the agonist EC50 (cAMP AlphaScreen, HEK293 cells stably expressing the receptor) in assay [3], in assay [4] and in assay [5] was greater than 100 µM throughout.

B5: c[Pro-Arg-Phe-Phe-Asn-Lys-Phe-DPro] (peptide)
peptide: cyclo(PRFFNKF[dP])
SMILES: N=C(N)NCCC[C@@H]1NC(=O)[C@@H]2CCCN2C(=O)[C@H]2CCCN2C(=O)[C@H](Cc2ccccc2)NC(=O)[C@H](CCCCN)NC(=O)[C@H](CC(N)=O)NC(=O)[C@H](Cc2ccccc2)NC(=O)[C@H](Cc2ccccc2)NC1=O
B5 had an agonist EC50 (cAMP AlphaScreen, HEK293 cells stably expressing the receptor) in assay [5] greater than 100 µM.

B6: c[Pro-Arg-Phe-Phe-Asn-Ala-Ala-DPro] (peptide)
peptide: cyclo(PRFFNAA[dP])
SMILES: C[C@@H]1NC(=O)[C@H](CC(N)=O)NC(=O)[C@H](Cc2ccccc2)NC(=O)[C@H](Cc2ccccc2)NC(=O)[C@H](CCCNC(=N)N)NC(=O)[C@@H]2CCCN2C(=O)[C@H]2CCCN2C(=O)[C@H](C)NC1=O
On to B6, for which the agonist EC50 (cAMP AlphaScreen, HEK293 cells stably expressing the receptor) in assay [3], in assay [4] and in assay [5] was greater than 100 µM throughout.

B7: c[Pro-Arg-Phe-Phe-Asn-Gly-Phe-DPro] (peptide)
peptide: cyclo(PRFFNGF[dP])
SMILES: N=C(N)NCCC[C@@H]1NC(=O)[C@@H]2CCCN2C(=O)[C@H]2CCCN2C(=O)[C@H](Cc2ccccc2)NC(=O)CNC(=O)[C@H](CC(N)=O)NC(=O)[C@H](Cc2ccccc2)NC(=O)[C@H](Cc2ccccc2)NC1=O
Regarding B7, the agonist EC50 (cAMP AlphaScreen, HEK293 cells stably expressing the receptor) in assay [3], in assay [4] and in assay [5] was greater than 100 µM each time.

B8: c[Pro-Arg-Phe-Phe-Leu-Ala-Phe-DPro] (peptide)
peptide: cyclo(PRFFLAF[dP])
SMILES: CC(C)C[C@@H]1NC(=O)[C@H](Cc2ccccc2)NC(=O)[C@H](Cc2ccccc2)NC(=O)[C@H](CCCNC(=N)N)NC(=O)[C@@H]2CCCN2C(=O)[C@H]2CCCN2C(=O)[C@H](Cc2ccccc2)NC(=O)[C@H](C)NC1=O
As to B8, the agonist EC50 (cAMP AlphaScreen, HEK293 cells stably expressing the receptor) in assay [3], in assay [4] and in assay [5] was greater than 100 µM each time.
